Values quoted from earlier work as cited in patent US20240247069A1, “FGFR3 BINDING MOLECULES AND METHODS OF USE THEREOF” (Regeneron Pharmaceuticals, Inc., priority 2023, published 2024).
Positions count from the first letter of the chain named. Names may count otherwise.

B1: KC18: anti-FGFR3 IIIb and IIIc antibody of WO 2022/040560 A1; VH SEQ ID NO:72, VL SEQ ID NO:73 (antibody, V domains shown)
VH: QVQLQQSGAELVRPGASVTLSCKASGDTFTDFEIHWVKQTPVHGLEWIGDIDPETGGTAYNQKFRGRAMLTADRSSSTAYMELRSLTSEDSAVYYCTRTYDGYPYAMDYWGQGTSVTVSS
VL: DIVMSQSPSSLAVSVGEKVTMSCKSSQSLLYSNNQKNYLAWYQQKPGQSPKLLIYWASTRESGVPDRFTGSGSGTDFTLTISSVKAEDLAVYYCQQYYSYRTFGGGTKLEIK
B2: KE63: anti-FGFR3 IIIb and IIIc antibody of WO 2022/040560 A1; VH SEQ ID NO:80, VL SEQ ID NO:81 (antibody, V domains shown)
VH: B1 VH with D27S, T30S, D50G, R65K, R67K, M69I, T99N, P104S, Y105Q, A106T
VL: NIMMTQSPSSLAVSAGEKVTMSCKSSQSVLYSSNQKNYLAWYQQKPGQSPKLLIYWASTRESGVPDRFTGSGSGTDFTLTISSVQAEDLAVYYCHQYLSSYTFGGGTKLEMK
B3: MS-Pro-59: anti-FGFR3 Ig-like domain 3 antibody of WO 2002/102972 A2; VH SEQ ID NO:28, VL SEQ ID NO:29 (antibody, V domains shown)
VH: QVQLQQSGPGLVKPSQTLSLTCAISGDSVSSNSAAWNWIRQSPGRGLEWLGRTYYRSKWYNDYAVSVKSRITINDTSKNQFSLQLNSVTPEDTAVYYCARSYYPDFDYWGQGTVTVSS
VL: DIELTQPPSVSVAPGQTARISCSGDALGDKYASWYQQKPGQAPVLVIYDDSDRPSGIPERFSGSNSGNTATLTISGTQAEDEADYYCQSYDGPDLWVFGGGTKLTVLGQ
B4: KE58: anti-FGFR3 IIIb and IIIc antibody of WO 2022/040560 A1; VH SEQ ID NO:78, VL SEQ ID NO:79 (antibody, V domains shown)
VH: EVQLQQSGPDLVKPGASVKISCKASGYTVTDYYMNWVKQSHGKSLEWIGDINPNNGVTTYNQKFKDKATLTVDKSSSTAYMELRSLTSEDSAVYYCAREEDFDGFDYWGQGTTLTVSS
VL: DIVMTQSHKFMSTSVGDRVSITCKASQDVSTGVAWYQQKPGQSPQLLIYWASTRHTGVPDRFTGSGSGTDYILTIRSVQAEDLALYYCQQHYSTPLTFGAGTKLELK
B5: 184.6.1.N54S: anti-FGFR3 Ig-like domain 3 antibody of WO 2010/111367 A1; VH SEQ ID NO:63, VL SEQ ID NO:64 (antibody, V domains shown)
VH: EVQLVESGGGLVQPGGSLRLSCAASGFTFTSTGISWVRQAPGKGLEWVGRIYPTSGSTNYADSVKGRFTISADTSKNTAYLQMNSLRAEDTAVYYCARARTYGIYDLYVDYTEYVMDYWGQGTLV
VL: DIQMTQSPSSLSASVGDRVTITCRASQDVDTSLAWYQQKPGKAPKLLIYSASFLYSGVPSRFSGSGSGTDFTLTISSLQPEDFATYYCQQSTGHPQTFGQGTKVEIKR
B6: 184.6.1.NS D30E: anti-FGFR3 Ig-like domain 3 antibody of WO 2010/111367 A1; VH SEQ ID NO:63, VL SEQ ID NO:69 (antibody, V domains shown)
VH: B5 VH
VL: B5 VL with D30E
B7: 184.6.58: anti-FGFR3 Ig-like domain 3 antibody of WO 2010/111367 A1 (aka R3Mab); VH SEQ ID NO:65, VL SEQ ID NO:66; comparator REGN6331 (antibody, V domains shown)
VH: B5 VH with G49A, S55N
VL: B5 VL with T31I, S91G, T92A, H94N, Q96Y
notes: anti-FGFR3 Ig-like domain 3 antibody of WO 2010/111367 A1 (aka R3Mab); comparator REGN6331
B8: 184.6.62: anti-FGFR3 Ig-like domain 3 antibody of WO 2010/111367 A1; VH SEQ ID NO:67, VL SEQ ID NO:68 (antibody, V domains shown)
VH: B5 VH with T30S, S31T, G49A, T54L, S55Y, N59H
VL: B5 VL with D30S, S32A, L33V, S91T, T92Y, G93T, H94T, P95S, Q96L
B9: MS-Pro-11: anti-FGFR3 Ig-like domain 3 antibody of WO 2002/102972 A2; VH SEQ ID NO:30, VL SEQ ID NO:31 (antibody, V domains shown)
VH: QVQLVQSGAEVKKPGASVKVSCKASGYTFTSYYMHWVRQAPGQGLEWMGWINPNSGGTNYAQKFQGRVTMTRDTSISTAYMELSSLRSEDTAVYYCARYYGSSLYHYVFGGFIDYWGQGTLVTVSS
VL: DIALTQPASVSGSPGQSITISCTGTSSDVGGYNYVSYQQHPGKAPKLMIYDVSNRPSGVSNRFSGSKSGNTASLTISGLQAEDEADYYCQSHHFYEVFGGGTKLTVLGQ
B10: KE94: anti-FGFR3 IIIb and IIIc antibody of WO 2022/040560 A1; VH SEQ ID NO:82, VL SEQ ID NO:83 (antibody, V domains shown)
VH: QVQLQQSGAELVRPGASVTLSCKASGSTFTDFEIHWVKQTPVHGLEWIGAIDPETGGTAYNQKFKGKAILTAVKSSSTAYMGLRSLTSEDSAVYYCTRNYDGYSRTMDYWGQGTSVTVSS
VL: B2 VL with T78S, T80S, A86T, K108R
B11: KE35: anti-FGFR3 IIIb and IIIc antibody of WO 2022/040560 A1; VH SEQ ID NO:74, VL SEQ ID NO:75 (antibody, V domains shown)
VH: EVQLQQSGPELVKPGASVKMSCKASGYTFTDYNMHWVKQSHGKSLEWIGYINPNNGGTRYNQKFKGKATLTVNKSSSTAYMELRSLTSEDSAVYYCARERDYDGAMDYWGQGTSVTVSS
VL: DIQMTQSPSSLSASLGGKVTITCKASQDINKFIAWYQHKPGKGPRLLIHYTSTLQPGIPSRFSGSGSGRDYSFSISNLEPEDIATYYCLQYDNLLWTFGGGTKLEIK
B12: KE42: anti-FGFR3 IIIb and IIIc antibody of WO 2022/040560 A1; VH SEQ ID NO:76, VL SEQ ID NO:77 (antibody, V domains shown)
VH: B11 VH with E46Q, R59N, K63N, G66D, S77T, A105S, Y108F
VL: B11 VL with Y87F
B13: FGA0005: anti-FGFR3 (S249C mutant) antibody of WO 2021/010326 A1; VH SEQ ID NO:86, VL SEQ ID NO:87 (antibody, V domains shown)
VH: QSLEESGGRLVTPGTPLTLTCTASGFSLSTYWICWVRQAPGEGLEWIGYISSSGNTYYASWAKGRFTISKTSSTTVDLKMTSLTTEDTATYFCGGHNSDYITGWALDPWGPGTLVTVSS
VL: AAVLTQTASPMSAAVGGTVTINCQSSKSVYRDKWLSWFQQKPGQPPKLLIYGASNLASGVSSRFKGSGSGTQFTLTISDVQCDDAATYYCLGGYSDNSEDAFGGGTEVVVK
B14: FGA0002: anti-FGFR3 (S249C mutant) antibody of WO 2021/010326 A1; VH SEQ ID NO:84, VL SEQ ID NO:85 (antibody, V domains shown)
VH: QELVESGGGLVQPGGSLKLSCKASGIDFSSYGISWVRQAPGKGLEWIAYIVPGFGIRNYANSVKGRFTISSDNAQNTVFLQMTSLTASDTATYFCARVPQYASSSGYYLPFNLWGPGTLVTVSS
VL: ALVMTQTPSPVSAAVGGTVTINCQASEDIYYNLAWFQQKPGQPPKLLIYRASTLASGVPSRFSGSGSGTEFTLTISDVQCDDAATYYCLGVYTYISADGNAFGGGTEVVVK
B15: VH: SEQ ID NO: 7 of PCT Publication No: WO 2010/048026 A2: unnamed anti-FGFR3 Ig-like domain 2 antibody of WO 2010/048026 A2; VH SEQ ID NO:61, VL SEQ ID NO:62 (antibody, V domains shown)
VH: EVQLVQSGAEVKKPGASVKVSCKASGYMFTSYGISWVRQAPGQGLEWMGWVSTYNGDTNYAQKFQGRVTVTTDTSTSTAYMELRSLRSEDTAVYYCARVLGYYDSIDGYYYGMDVWGQGTTVTVSS
VL: QSVLTQPPSLSVAPGKTATFTCGGNNIGDKSVHWYRQKPGQAPVLVMYLDTERPSGIPERMSGSNFGNTATLTITRVEAEDEADYYCQVWDSGSDHVVFGGGTKLTVLG
B16: B-701: anti-FGFR3 antibody of WO 2016/134234 A1; VH SEQ ID NO:70, VL SEQ ID NO:71 (antibody, V domains shown)
VH: EVQLVESGGGLVQPGGSLRLSCAASGFTFTSTGISWVRQAPGKGLEWVGRIYPTSGSTNYADSVKGRFTISADTSKNTAYLQMNSLRAEDTAVYYCARTYGIYDLYVDYTEYVMDYWGQGTLV
VL: B5 VL with Q37K
B17: FGA0007: anti-FGFR3 (S249C mutant) antibody of WO 2021/010326 A1; VH SEQ ID NO:88, VL SEQ ID NO:89 (antibody, V domains shown)
VH: QSVEESGGRLVTPGTPLTLTCTVSGFSLSSYPMSWVRQAPGKGLEWIGIISSSGRTYYASWAKGRFTISKASSTTAALKMTSLTTEDTATYFCARGGVYKYDDYGDYVLNLWGRGTLVTVSS
VL: AIEMTQTPFSVSAAVGGTVTINCQASENIYSNLAWYQQKPGQPPKLLIYAASYLASGVPSRFKGSGSGTDYTLTISGVQCADAATYYCQCTLYSSTYGVAFGGGTEVVVK

System: FGFR3
Conditions: Table T-3, exemplary FGFR3 D3 binding sequences from cited PCT publications

Question: With B1 as the molecule, how does the Activity read?
Answer: Its Activity is “Antagonistic”.

Question: With B2 as the molecule, how does the Activity read?
Answer: The Activity was “Antagonistic”.

Question: For B3, which Activity is on record?
Answer: The Activity was “Antagonistic”.

Question: For B4, which Activity is on record?
Answer: The Activity was “Antagonistic”.

Question: With B5 as the molecule, how does the Activity read?
Answer: Its Activity is “Antagonistic”.

Question: With B6 as the molecule, how does the Activity read?
Answer: The Activity was “Antagonistic”.

Question: Which Activity does the source give for B7 here?
Answer: The Activity was “Antagonistic”.

Question: With B8 as the molecule, how does the Activity read?
Answer: The Activity was “Antagonistic”.

Question: For B9, which Activity is on record?
Answer: The Activity was “Antagonistic”.

Question: For B10, which Activity is on record?
Answer: Its Activity is “Antagonistic”.

Question: For B11, which Activity is on record?
Answer: The Activity was “Antagonistic”.

Question: With B12 as the molecule, how does the Activity read?
Answer: The Activity was “Antagonistic”.

Same assay, conditions: literature antibodies, sequences from cited PCT publications

Question: Which Activity does the source give for B1 here?
Answer: The Activity was “Antagonistic”.

Question: Which Activity does the source give for B2 here?
Answer: The Activity was “Antagonistic”.

Question: With B13 as the molecule, how does the Activity read?
Answer: Its Activity is “Antagonistic”.

Question: With B3 as the molecule, how does the Activity read?
Answer: Its Activity is “Antagonistic”.

Question: With B14 as the molecule, how does the Activity read?
Answer: The Activity was “Antagonistic”.

Question: Which Activity does the source give for B15 here?
Answer: Its Activity is “Antagonistic”.

Question: Which Activity does the source give for B4 here?
Answer: The Activity was “Antagonistic”.

Question: Which Activity does the source give for B5 here?
Answer: Its Activity is “Antagonistic”.

Question: With B6 as the molecule, how does the Activity read?
Answer: The Activity was “Antagonistic”.

Question: With B7 as the molecule, how does the Activity read?
Answer: Its Activity is “Antagonistic”.

Question: For B16, which Activity is on record?
Answer: Its Activity is “Antagonistic”.

Question: For B8, which Activity is on record?
Answer: Its Activity is “Antagonistic”.

Question: For B9, which Activity is on record?
Answer: The Activity was “Antagonistic”.

Question: For B10, which Activity is on record?
Answer: The Activity was “Antagonistic”.

Question: Which Activity does the source give for B11 here?
Answer: Its Activity is “Antagonistic”.

Question: For B12, which Activity is on record?
Answer: The Activity was “Antagonistic”.

Question: Which Activity does the source give for B17 here?
Answer: Its Activity is “Antagonistic”.
